B1: Circadian clock oscillator protein KaiC (Synechococcus elongatus (strain PCC 7942)), Q79PF4 (parent)
chain: MTSAEMTSPNNNSEHQAIAKMRTMIEGFDDISHGGLPIGRSTLVSGTSGTGKTLFSIQFLYNGIIEFDEPGVFVTFEETPQDIIKNARSFGWDLAKLVDEGKLFILDASPDPEGQEVVGGFDLSALIERINYAIQKYRARRVSIDSVTSVFQQYDASSVVRRELFRLVARLKQIGATTVMTTERIEEYGPIARYGVEEFVSDNVVILRNVLEGERRRRTLEILKLRGTSHMKGEYPFTITDHGINIFPLGAMRLTQRSSNVRVSSGVVRLDEMCGGGFFKDSIILATGATGTGKTLLVSRFVENACANKERAILFAYEESRAQLLRNAYSWGMDFEEMERQNLLKIVCAYPESAGLEDHLQIIKSEINDFKPARIAIDSLSALARGVSNNAFRQFVIGVTGYAKQEEITGLFTNTSDQFMGAHSITDSHISTITDTIILLQYVEIRGEMSRAINVFKMRGSWHDKAIREFMISDKGPDIKDSFRNFERIISGSPTRITVDEKSELSRIVRGVQEKGPES
partner: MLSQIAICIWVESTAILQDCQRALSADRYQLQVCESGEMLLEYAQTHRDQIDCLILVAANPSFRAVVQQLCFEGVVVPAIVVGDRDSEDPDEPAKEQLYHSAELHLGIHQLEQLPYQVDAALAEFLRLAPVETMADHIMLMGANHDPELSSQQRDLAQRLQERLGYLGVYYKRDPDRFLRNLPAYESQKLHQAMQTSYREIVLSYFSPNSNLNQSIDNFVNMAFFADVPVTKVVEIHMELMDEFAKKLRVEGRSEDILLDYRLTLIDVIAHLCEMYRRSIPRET
B2: Circadian clock oscillator protein KaiA (Synechococcus elongatus (strain PCC 7942)), Q79PF6 (parent)
chain: B1 partner
partner: B1 chain

Variants of: B1
Details: with kaia_syne7 kaiA, Q79PF6

Variant | effect of a mutation on the interaction
R215C | decreasing interaction
P248K | decreasing interaction

Variants of: B1
Details: with kaia_syne7 kaiA, Q79PF6
Remark: another data set of the same source

Variant | effect of a mutation on the interaction
T495A | decreasing interaction

Variants of: B2
Details: with kaic_syne7 kaiC, Q79PF4

Variant | effect of a mutation on the interaction
Y166C | decreasing interaction

Variants of: B2
Details: with kaic_syne7 kaiC, Q79PF4
Remark: another data set of the same source

Variant | effect of a mutation on the interaction
R249H | decreasing interaction

From IntAct's records for PubMed 11356188
